Values of other authors, collected in PMC7221163.

Molecular target: insulin receptor (HIR) (Homo sapiens) (UniProt P06213)
Assay: radioreceptor assay

Chain of insulin (P01308 90-110): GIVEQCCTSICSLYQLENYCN

Kd: 1.2 nM
Substance: insulin (from UniProt P01308)
